This assay addresses ubiquitin (wild type, Q40Ub) (UniProt P0CG48 1-76). Briefly: NMR chemical shift perturbations of the conjugate against the free proteins.

B1: Ubc13 C87K/K92T/K94Q (enzyme)
chain: MAGLPRRIIKETQRLLAEPVPGIKAEPDESNARYFHVVIAGPQDSPFEGGTFKLELFLPEEYPMAAPKVRFMTKIYHPNVDKLGRIKLDILTDQWSPALQIRTVLLSIQALLSAPNPDDPLANDVAEQWKTNEAQAIETARAWTRLYAMNNI
With B1, the binding result is reported as “binds”.

For the origin of these results see article doi:10.1101/2023.05.22.541748 (bioRxiv, 2023).
